Source: article PMC11417369, “DNA sequence and chromatin differentiate sequence-specific transcription factor binding in the human malaria parasite Plasmodium falciparum”

B1: CACACA_negctrl_site1645 (dsDNA)
DNA 1: TATTTTAGAGAAAAAAATAAATTACAAAATGTTAGG
DNA 2: CCTAACATTTTGTAATTTATTTTTTTCTCTAAAATA
B2: CACACA_negctrl_site62 (dsDNA)
DNA 1: TATATGTTAATTTTTTTTTTTTTTTTTTTTTTTATA
DNA 2: TATAAAAAAAAAAAAAAAAAAAAAAATTAACATATA
B3: CACACA_negctrl_site825 (dsDNA)
DNA 1: TAAGTTCACAAAAAAAAAAAAAAATAAAGAAATAAA
DNA 2: TTTATTTCTTTATTTTTTTTTTTTTTTGTGAACTTA
B4: CACACA_negctrl_site237 (dsDNA)
DNA 1: ATTCTATTTTTTATAAAACCATGTCATCAACATAGG
DNA 2: CCTATGTTGATGACATGGTTTTATAAAAAATAGAAT
B5: CACACA_negctrl_site1620 (dsDNA)
DNA 1: ATCTAAATAATATATATATATAATATTAATAATATA
DNA 2: TATATTATTAATATTATATATATATATTATTTAGAT
B6: CACACA_negctrl_site810 (dsDNA)
DNA 1: AGAAAGGAGGAAATAAAAGGACTTCTTTTTTTATAT
DNA 2: ATATAAAAAAAGAAGTCCTTTTATTTCCTCCTTTCT
B7: CACACA_negctrl_site1391 (dsDNA)
DNA 1: ATTTTTTTTTTTTTTTTTTTTTTTTTTTGATTTGTG
DNA 2: CACAAATCAAAAAAAAAAAAAAAAAAAAAAAAAAAT
B8: CACACA_negctrl_site1574 (dsDNA)
DNA 1: TTTTTTAAAAGAAAATAAAAAATAAGCATAATATGA
DNA 2: TCATATTATGCTTATTTTTTATTTTCTTTTAAAAAA
B9: CACACA_negctrl_site1155 (dsDNA)
DNA 1: TAAATGTCTTCAATGAAGTGGAAATGCTGTTATATA
DNA 2: TATATAACAGCATTTCCACTTCATTGAAGACATTTA
B10: CACACA_negctrl_site515 (dsDNA)
DNA 1: GACTCATTAAGGATTATTCCTAATGATCAAAAGAAC
DNA 2: GTTCTTTTGATCATTAGGAATAATCCTTAATGAGTC
B11: CACACA_site8094 (dsDNA)
DNA 1: AAAAAAATTTGGCATACACACACACCCCCACCCACA
DNA 2: TGTGGGTGGGGGTGTGTGTGTATGCCAAATTTTTTT
B12: CACACA_negctrl_site786 (dsDNA)
DNA 1: AATAATAAATATATATATATATATATATATATATTT
DNA 2: AAATATATATATATATATATATATATATTTATTATT
B13: CACACA_negctrl_site329 (dsDNA)
DNA 1: TTTAATTTATATAATGATATTAAGTTGGTTATTAGG
DNA 2: CCTAATAACCAACTTAATATCATTATATAAATTAAA
B14: CACACA_negctrl_site1765 (dsDNA)
DNA 1: TACTTTATATTATATATATATATATATATATATATA
DNA 2: TATATATATATATATATATATATATAATATAAAGTA
B15: CACACA_negctrl_site1311 (dsDNA)
DNA 1: TTACATTTTTGAAATAGATACATACACGTGTATGTA
DNA 2: TACATACACGTGTATGTATCTATTTCAAAAATGTAA
B16: CACACA_negctrl_site674 (dsDNA)
DNA 1: TAAAATGATAAATGAATGTGATCATTTTATAAAATA
DNA 2: TATTTTATAAAATGATCACATTCATTTATCATTTTA
B17: CACACA_negctrl_site1423 (dsDNA)
DNA 1: TTTTTATAACTATATTATATAACTTTTGTACGAACT
DNA 2: AGTTCGTACAAAAGTTATATAATATAGTTATAAAAA
B18: CACACA_negctrl_site1084 (dsDNA)
DNA 1: TTTTATTGATTATTCATAAATATGCTATTCATCTAA
DNA 2: TTAGATGAATAGCATATTTATGAATAATCAATAAAA
B19: CACACA_negctrl_site793 (dsDNA)
DNA 1: TCCTATAATTTTTTAATCAAAATATTTTATCCTTTG
DNA 2: CAAAGGATAAAATATTTTGATTAAAAAATTATAGGA
B20: CACACA_negctrl_site129 (dsDNA)
DNA 1: AAGCATTTTTTTTAAAGCCTGTTCATCATCCTTACC
DNA 2: GGTAAGGATGATGAACAGGCTTTAAAAAAAATGCTT
B21: CACACA_site117 (dsDNA)
DNA 1: ATATATATAAAACACACACACAAAAAAAATAAAGAC
DNA 2: GTCTTTATTTTTTTTGTGTGTGTGTTTTATATATAT
B22: CACACA_negctrl_site620 (dsDNA)
DNA 1: TTTTTTTACTTAATAGTTCAACATATATCTCAATGT
DNA 2: ACATTGAGATATATGTTGAACTATTAAGTAAAAAAA
B23: CACACA_negctrl_site1083 (dsDNA)
DNA 1: ATGAAAAAAAAAAAAAAAAAAAAAAAAAAAAAAATA
DNA 2: TATTTTTTTTTTTTTTTTTTTTTTTTTTTTTTTCAT
B24: CACACA_negctrl_site173 (dsDNA)
DNA 1: TTTTATATATATATATATATATATATATATGTATAT
DNA 2: ATATACATATATATATATATATATATATATATAAAA
B25: CACACA_negctrl_site905 (dsDNA)
DNA 1: TATAATAATAATAATAATAATAATAATAATAATAAT
DNA 2: ATTATTATTATTATTATTATTATTATTATTATTATA
B26: CACACA_negctrl_site730 (dsDNA)
DNA 1: AGATGATATATTATATATCCTTTTAATAAATGTAAT
DNA 2: ATTACATTTATTAAAAGGATATATAATATATCATCT
B27: CACACA_negctrl_site1241 (dsDNA)
DNA 1: ATTTTTTTTTTTTTTTTTTTTTTGTTTATACAAAAT
DNA 2: ATTTTGTATAAACAAAAAAAAAAAAAAAAAAAAAAT
B28: CACACA_negctrl_site1491 (dsDNA)
DNA 1: GTAGCCTTTCTTTATAAAGGCAAACAAACAAAAAAT
DNA 2: ATTTTTTGTTTGTTTGCCTTTATAAAGAAAGGCTAC
B29: CACACA_negctrl_site491 (dsDNA)
DNA 1: ATTTAATATCACAATATATTTTTTACCCTTATCAGC
DNA 2: GCTGATAAGGGTAAAAAATATATTGTGATATTAAAT
B30: CACACA_negctrl_site583 (dsDNA)
DNA 1: AAAAAAAAAAAAAAAAAAAAAAAAATATATAATTTA
DNA 2: TAAATTATATATTTTTTTTTTTTTTTTTTTTTTTTT
B31: CACACA_negctrl_site1603 (dsDNA)
DNA 1: TGATTTATCTATATTTTATAAGTTATTTATTTTTTT
DNA 2: AAAAAAATAAATAACTTATAAAATATAGATAAATCA
B32: CACACA_negctrl_site116 (dsDNA)
DNA 1: ATTGGAAAATATGTTATATATATATATATATATATG
DNA 2: CATATATATATATATATATATAACATATTTTCCAAT

Molecular target: T1, PF3D7_0420300 D1 (Plasmodium falciparum, UniProt Q8I1N6 1956-2015)
T1 sequence: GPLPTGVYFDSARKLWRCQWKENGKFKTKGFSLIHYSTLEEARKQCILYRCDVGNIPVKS
Test: gcPBM; about 25 ug protein; PBS, 1% milk, 0.2 mg/ml BSA, salmon testes DNA, 0.03% Triton X-100
Settings: tags: N-terminal GST (pGEX-4T-1), kept; label: surface-attached array probe

| Binder | binding signal |
| --- | --- |
| B1 | 8.98 ln median PBM intensity, better of two orientations |
| B2 | 8.98 ln median PBM intensity, better of two orientations |
| B3 | 8.98 ln median PBM intensity, better of two orientations |
| B4 | 8.99 ln median PBM intensity, better of two orientations |
| B5 | 8.99 ln median PBM intensity, better of two orientations |
| B6 | 8.99 ln median PBM intensity, better of two orientations |
| B7 | 8.99 ln median PBM intensity, better of two orientations |
| B8 | 8.99 ln median PBM intensity, better of two orientations |
| B9 | 8.99 ln median PBM intensity, better of two orientations |
| B10 | 9 ln median PBM intensity, better of two orientations |
| B11 | 10.6 ln median PBM intensity, better of two orientations |
| B12 | 9 ln median PBM intensity, better of two orientations |
| B13 | 9 ln median PBM intensity, better of two orientations |
| B14 | 9 ln median PBM intensity, better of two orientations |
| B15 | 9.01 ln median PBM intensity, better of two orientations |
| B16 | 9.01 ln median PBM intensity, better of two orientations |

| Binder | binding signal |
| --- | --- |
| B17 | 9.01 ln median PBM intensity, better of two orientations |
| B18 | 9.01 ln median PBM intensity, better of two orientations |
| B19 | 9.02 ln median PBM intensity, better of two orientations |
| B20 | 9.02 ln median PBM intensity, better of two orientations |
| B21 | 10.6 ln median PBM intensity, better of two orientations |
| B22 | 9.02 ln median PBM intensity, better of two orientations |
| B23 | 9.02 ln median PBM intensity, better of two orientations |
| B24 | 9.03 ln median PBM intensity, better of two orientations |
| B25 | 9.03 ln median PBM intensity, better of two orientations |
| B26 | 9.03 ln median PBM intensity, better of two orientations |
| B27 | 9.04 ln median PBM intensity, better of two orientations |
| B28 | 9.04 ln median PBM intensity, better of two orientations |
| B29 | 9.04 ln median PBM intensity, better of two orientations |
| B30 | 9.05 ln median PBM intensity, better of two orientations |
| B31 | 9.05 ln median PBM intensity, better of two orientations |
| B32 | 9.05 ln median PBM intensity, better of two orientations |
